Experimental findings from publication PMC10651481, “m1A in CAG repeat RNA binds to TDP-43 and induces neurodegeneration” are described below.

Data set [1] addresses T1, TDP-43 full-length (UniProt Q13148 1-414). In words: EMSA; EMSA: 10 mM HEPES pH 8.0, 50 mM KCl, 1 mM EDTA, 5% glycerol, 1 mM DTT, 40 U/ml RNase inhibitor, 4 C, 1 h; 20 fmol probe in 20 ul; 8% native PAGE. To be noted: protein: recombinant, tags: MBP-6xHis (C-terminal as named TDP-43-MBP-6xHis). (In general: A gel shift assay detects complexes by their altered migration in electrophoresis.)

The target of a further data set is TDP-43-RRM (UniProt Q13148 104-262). Described as above. The conditions noted are these: protein: recombinant.
Data set [2] has as its target T1, TDP-43 full-length. In words: EMSA; separate experiment run beside 5FL; differs from 70 nM in 3d,e; EMSA: 10 mM HEPES pH 8.0, 50 mM KCl, 1 mM EDTA, 5% glycerol, 1 mM DTT, 40 U/ml RNase inhibitor, 4 C, 1 h; 20 fmol probe in 20 ul; 8% native PAGE. To be noted: protein: recombinant; tags: MBP-6xHis (C-terminal as named TDP-43-MBP-6xHis); label: 5'-32P.

Chain of TDP-43-RRM (Q13148 104-262): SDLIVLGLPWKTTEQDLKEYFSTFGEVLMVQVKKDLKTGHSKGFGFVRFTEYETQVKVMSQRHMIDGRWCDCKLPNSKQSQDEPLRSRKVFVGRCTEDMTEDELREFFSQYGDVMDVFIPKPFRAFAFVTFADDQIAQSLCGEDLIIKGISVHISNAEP
T1 sequence (Q13148 whole entry): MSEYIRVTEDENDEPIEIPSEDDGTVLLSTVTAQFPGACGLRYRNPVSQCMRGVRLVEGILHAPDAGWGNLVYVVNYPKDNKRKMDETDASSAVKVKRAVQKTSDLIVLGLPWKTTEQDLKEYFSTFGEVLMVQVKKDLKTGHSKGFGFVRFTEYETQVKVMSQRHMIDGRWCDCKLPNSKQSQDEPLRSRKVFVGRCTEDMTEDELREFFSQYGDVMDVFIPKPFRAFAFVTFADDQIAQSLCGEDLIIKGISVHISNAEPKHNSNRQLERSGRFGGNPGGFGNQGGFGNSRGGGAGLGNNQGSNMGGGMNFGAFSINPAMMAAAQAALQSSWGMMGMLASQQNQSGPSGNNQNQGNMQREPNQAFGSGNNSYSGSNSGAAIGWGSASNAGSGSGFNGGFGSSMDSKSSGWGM

In general, Kd refers to a measure of binding affinity in units of concentration. Regarding CAGCAGCAGCAGCAGCAGCAG (ssRNA, m1A at position 11) [(CAG)7-1m1A], the dissociation constant Kd is 70 nM in the data set with TDP-43 full-length [1] (label: 5'-32P), 180 nM in the data set with TDP-43-RRM (label: 5'-32P) and 13.1 nM with TDP-43 full-length [2].
For CCGUUCCGCCCAGGCCGCGCCCAGCUGGAAUGCA (ssRNA) [Control RNA probe (rA)], the dissociation constant (Kd) with TDP-43 full-length [1] (label: 5'-biotin, 3'-32P pCp) turned out to be 38 nM; in the data set with TDP-43-RRM (label: 5'-biotin, 3'-32P pCp), 73 nM.
In the case of CCGUUCCGCCCAGGCCGCGCCCAGCUGGAAUGCA (ssRNA, m6A at position 12) [m6A RNA probe], the Kd with TDP-43 full-length [1] (label: 5'-biotin, 3'-32P pCp) is 46 nM; with TDP-43-RRM (label: 5'-biotin, 3'-32P pCp), 81 nM.
In the case of CCGUUCCGCCCAGGCCGCGCCCAGCUGGAAUGCA (ssRNA, m1A at position 12) [m1A RNA probe], the Kd with TDP-43 full-length [1] (label: 5'-biotin, 3'-32P pCp) amounted to 18 nM; with TDP-43-RRM (label: 5'-biotin, 3'-32P pCp) it was 31 nM.
For CAGCAGCAGCAGCAGCAGCAG (ssRNA) [(CAG)7-0m1A], the Kd with TDP-43 full-length [1] (label: 5'-32P) is 146 nM; with TDP-43-RRM (label: 5'-32P), 380 nM.
